Broadly, the Kd is the constant that tells how readily two partners part at equilibrium. Broadly, the IC50 is the point on the concentration scale where inhibition reaches its midpoint. A lower IC50 goes with inhibition by little substance.

Bridge positions count the residues as written; N and C are the ends. Square brackets hold non-standard residues; d marks the D form. Primed or numbered codes have the meaning given here. Ends that are not written are not given here. * marks the point of attachment. FITC = O=C1OC2(c3ccc(O)cc3Oc3cc(O)ccc32)c2ccc(NC(=S)*)cc21; PEG2′ = not defined here; Peg = not defined here; AEEA = NCCOCCOCC(=O)O

Common to all, as to conditions: both partners purified
Test [1] has as its target T1, GST-hTEAD1(209-426) (human, UniProt P28347 209-426).
T1 construct: A 3C protease site stands between tags and protein; also called human TEAD1; source: E. coli BL21 DE3 RIL, purified (His Trap, SEC); not shown: GST, N-terminal, kept
As to the kind of experiment: fluorescence polarisation; direct: FITC-labelled peptide (10 nM) titrated with hTEAD1 or mTEAD4; 10 mM HEPES, 150 mM NaCl, 0.1% Tween-20, pH 7.4; read after 1 h.

The target of test [2] is T2, mouse TEAD4(210-427) (mouse, UniProt Q62296 210-427).
T2 construct: mouse TEAD4, residues 210-427; The tag was cleaved with 3C protease only for the crystallisation; nothing is said for SPR and FP; also called mTEAD4; source: E. coli BL21 DE3 RIL, purified (His Trap, SEC)
T2 sequence (Q62296 210-427): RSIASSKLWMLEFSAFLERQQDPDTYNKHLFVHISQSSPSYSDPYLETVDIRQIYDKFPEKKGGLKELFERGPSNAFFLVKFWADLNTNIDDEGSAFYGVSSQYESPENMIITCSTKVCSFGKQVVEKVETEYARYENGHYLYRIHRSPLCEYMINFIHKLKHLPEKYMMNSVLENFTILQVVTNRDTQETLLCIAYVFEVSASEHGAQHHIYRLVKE
The description is as above.

Test [3] addresses T1, GST-hTEAD1(209-426). The description is as above. This is another data set of the same source.
Test [4] addresses T2, mouse TEAD4(210-427). The test is described as above. The source holds these as a separate data set.
In test [5] the target is T1, GST-hTEAD1(209-426). As to the kind of experiment: SPR; GST-hTEAD1 or mTEAD4 amine-coupled to a CM5 chip (10 mM MES pH 6.4), peptides as analytes; 10 mM HEPES, 150 mM NaCl, 0.05% Tween-20, pH 7.4, 20 °C, 30 µL/min; steady-state fit, 1:1 model.
For test [6], the target named is T2, mouse TEAD4(210-427). Described as above.
For test [7], the target named is T1, GST-hTEAD1(209-426). The test is described as above. This is another data set of the same source.
The target in test [8] is T2, mouse TEAD4(210-427). The test is described as above. The source holds these as a separate data set.
For test [9], the target named is T1, GST-hTEAD1(209-426). The description is as above. This is another data set of the same source.
For test [10], the target named is T2, mouse TEAD4(210-427). The description is as above. The source holds these as a separate data set.
For test [11], the target named is T1, GST-hTEAD1(209-426). The description is as above. This is another data set of the same source.
Test [12] concerns the target T2, mouse TEAD4(210-427). The test is described as above. This is another data set of the same source.
The target of test [13] is T2, mouse TEAD4(210-427). The test is described as follows: fluorescence polarisation; competition: acetylated peptide titrated (50 µM-6 pM) against mTEAD4 (400 nM) with a FITC-labelled tracer peptide (10 nM; tracer not named); read after 1 h. In general terms: Polarisation of emitted light reports the rotation of a fluorescent probe.
For test [14], the target named is T1, GST-hTEAD1(209-426). The test is described as follows: SPR; GST-hTEAD1 or mTEAD4 amine-coupled to a CM5 chip (10 mM MES pH 6.4), peptides as analytes; 10 mM HEPES, 150 mM NaCl, 0.05% Tween-20, pH 7.4, 20 °C, 30 µL/min; steady-state fit, 1:1 model. The source holds these as a separate data set. A general note: In SPR one partner is held on a chip, and binding of the other changes the refractive index at the surface.

Test [15] concerns the target T2, mouse TEAD4(210-427). Described as above. This is another data set of the same source.
Test [16] deals with T2, mouse TEAD4(210-427). The description is as above. This is another data set of the same source.

T1 sequence (P28347 209-426): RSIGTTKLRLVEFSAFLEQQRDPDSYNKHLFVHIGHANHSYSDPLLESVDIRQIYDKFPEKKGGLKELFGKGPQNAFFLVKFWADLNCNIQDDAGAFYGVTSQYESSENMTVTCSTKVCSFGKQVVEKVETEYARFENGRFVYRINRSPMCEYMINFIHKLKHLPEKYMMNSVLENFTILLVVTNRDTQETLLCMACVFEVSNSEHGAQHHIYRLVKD

B1: FITC-labelled VGL4(203-256) (peptide)
peptide: DPVVEEHFRRSLGKNYKEPEPAPNSVSITGSVDDHFAKALGDTWLQIKAAKDSA
modifications: also: FITC label, place not given here
notes: numbers count on: mouse VGL4 as in PDB 4LN0; also called FITC-VGL4
For B1, the Kd is 17 ± 2.5 nM with GST-hTEAD1(209-426) [1] and 9.2 ± 0.6 nM in the test with mouse TEAD4(210-427) [2].

B2: FITC-labelled peptide 7 (Tat-PEG2-4E) (peptide)
peptide: GRKKRRQRRRPQ[PEG2′]SVEDHFAKALGDTWLQIKAA
modifications: not fully specified (some residues); also: FITC label, place not given here
notes: also called 7 (FITC-Peg); source: synthetic peptide
On to B2, for which the Kd with GST-hTEAD1(209-426) [3] was 147 ± 70 nM; with mouse TEAD4(210-427) [4], 51 ± 5 nM.

B3: FITC-labelled peptide 4E (peptide)
peptide: {FITC-Peg}-SVEDHFAKALGDTWLQIKAA
modifications: lactam 3-18; reading uncertain
notes: macrocyclic VGL4 two-helix motif 4E; numbers count on: mouse VGL4 as in PDB 4LN0; Rink amide resin: C-terminal amide surmised; also called 4E (FITC-Peg); source: synthetic peptide
As for B3, the dissociation constant (Kd) stood at 168 ± 37 nM in the test with GST-hTEAD1(209-426) [3] and 32 ± 5 nM in the test with mouse TEAD4(210-427) [4].

B4: peptide 7, acetylated (Tat-PEG2-4E) (peptide)
peptide: Ac-GRKKRRQRRRPQ[AEEA]SVEDHFAKALGDTWLQIKAA-NH2
modifications: lactam 16-31; not fully specified (some residues)
notes: cell-penetrating Tat peptide; macrocyclic VGL4 two-helix motif 4E; numbers count on: mouse VGL4 as in PDB 4LN0; The two parts are joined by a PEG2 unit that is no amino acid; Rink amide resin: C-terminal amide surmised; source: synthetic peptide
For the molecule B4, the values for the Kd with GST-hTEAD1(209-426) [5] and with mouse TEAD4(210-427) [6] were 830 ± 780 nM and 1500 ± 1000 nM, respectively.

B5: VGL4(203-256), acetylated (peptide 1) (peptide)
peptide: Ac-DPVVEEHFRRSLGKNYKEPEPAPNSVSITGSVDDHFAKALGDTWLQIKAAKDSA
notes: numbers count on: mouse VGL4 as in PDB 4LN0; Synthesised on Rink amide resin: C-terminal amide surmised (masses fit); also called hVGL4(203-256); source: synthetic peptide
In the case of B5, the Kd with GST-hTEAD1(209-426) [7] turned out to be 4300 nM; with mouse TEAD4(210-427) [8], 3100 nM.

B6: peptide 4E(open), acetylated (peptide)
peptide: Ac-SVEDHFAKALGDTWLQIKAA
notes: VGL4 two-helix motif with E at 235, not cyclised; numbers count on: mouse VGL4 as in PDB 4LN0; Synthesised on Rink amide resin: C-terminal amide surmised; also called linear version of 4E; source: synthetic peptide
Consider B6, for which the Kd with GST-hTEAD1(209-426) [9] was determined as 3100 nM; with mouse TEAD4(210-427) [10] it was 2400 nM.

B7: peptide 4, acetylated (two-helix motif of VGL4) (peptide)
peptide: Ac-SVDDHFAKALGDTWLQIKAA
notes: VGL4 two-helix motif (helices alpha2/alpha3); Synthesised on Rink amide resin: C-terminal amide surmised; source: synthetic peptide
Regarding B7, the Kd in the test with GST-hTEAD1(209-426) [11] amounted to 830 ± 780 nM; in the test with mouse TEAD4(210-427) [12], 1500 ± 1000 nM.

B8: peptide 24 (alanine scan of 4E), acetylated (peptide)
peptide: Ac-SVEDHFAKALGDTWAQIKAA
modifications: lactam 3-18
notes: macrocyclic VGL4 two-helix motif 4E with one alanine; numbers count on: mouse VGL4 as in PDB 4LN0; Synthesised on Rink amide resin: C-terminal amide surmised; source: synthetic peptide
Take B8: the half-maximal inhibitory concentration (IC50) with mouse TEAD4(210-427) [13] amounted to 100 ± 10 nM. In addition, the results for the equilibrium dissociation constant (Kd) in the test with GST-hTEAD1(209-426) [14] and with mouse TEAD4(210-427) [15] were 1100 ± 60 nM and 2000 ± 140 nM, respectively.

B9: peptide 26 (alanine scan of 4E), acetylated (peptide)
peptide: Ac-SVEDHFAKALGDTWLQAKAA
modifications: lactam 3-18
notes: as for B8
B9 registered a concentration for half-maximal inhibition (IC50) with mouse TEAD4(210-427) [13] of 7400 ± 6100 nM. The dissociation constant (Kd) came to 2700 ± 1070 nM in the test with GST-hTEAD1(209-426) [14] and 4400 ± 1350 nM with mouse TEAD4(210-427) [15].

B10: peptide 23 (alanine scan of 4E), acetylated (peptide)
peptide: Ac-SVEDHFAKALGDTALQIKAA
modifications: lactam 3-18
notes: as for B8
Take B10: in the test with GST-hTEAD1(209-426) [14], the dissociation constant Kd was 7800 ± 150 nM.

B11: peptide 19 (alanine scan of 4E), acetylated (peptide)
peptide: Ac-SVEDHFAAALGDTWLQIKAA
modifications: lactam 3-18
notes: as for B8
Turning to B11, the IC50 with mouse TEAD4(210-427) [13] came to 280 ± 90 nM. Also, the Kd with GST-hTEAD1(209-426) [14] amounted to 1700 ± 10 nM; with mouse TEAD4(210-427) [15], 2800 ± 60 nM.

B12: peptide 18 (alanine scan of 4E), acetylated (peptide)
peptide: Ac-SVEDHAAKALGDTWLQIKAA
modifications: lactam 3-18
notes: as for B8
On to B12, for which, in the test with mouse TEAD4(210-427) [13], the IC50 is greater than 50000 nM. The Kd with GST-hTEAD1(209-426) [14] and with mouse TEAD4(210-427) [15] was greater than 100000 nM in each case.

B13: peptide 25 (alanine scan of 4E), acetylated (peptide)
peptide: Ac-SVEDHFAKALGDTWLAIKAA
modifications: lactam 3-18
notes: as for B8
Take B13: the IC50 with mouse TEAD4(210-427) [13] was 60 ± 10 nM. In addition, the Kd in the test with GST-hTEAD1(209-426) [14] is 750 ± 120 nM; with mouse TEAD4(210-427) [15], 1300 ± 110 nM.

B14: peptide 17 (alanine scan of 4E), acetylated (peptide)
peptide: Ac-SVEDAFAKALGDTWLQIKAA
modifications: lactam 3-18
notes: as for B8
B14 had an IC50 in the test with mouse TEAD4(210-427) [13] greater than 100000 nM. Further, the Kd with GST-hTEAD1(209-426) [14] and in the test with mouse TEAD4(210-427) [15] was greater than 100000 nM throughout.

B15: peptide 14 (alanine scan of 4E), acetylated (peptide)
peptide: Ac-AVEDHFAKALGDTWLQIKAA
modifications: lactam 3-18
notes: as for B8
B15 yielded an IC50 with mouse TEAD4(210-427) [13] of 6100 ± 4300 nM. The Kd was found to be 1500 ± 20 nM with GST-hTEAD1(209-426) [14] and 2700 ± 250 nM in the test with mouse TEAD4(210-427) [15].

B16: peptide 15 (alanine scan of 4E), acetylated (peptide)
peptide: Ac-SAEDHFAKALGDTWLQIKAA
modifications: lactam 3-18
notes: as for B8
B16 showed a half-inhibitory concentration (IC50) with mouse TEAD4(210-427) [13] of 2100 ± 560 nM. In addition, the Kd came out at 1000 ± 370 nM with GST-hTEAD1(209-426) [14] and 1500 ± 370 nM with mouse TEAD4(210-427) [15].

B17: peptide 21 (alanine scan of 4E), acetylated (peptide)
peptide: Ac-SVEDHFAKALGATWLQIKAA
modifications: lactam 3-18
notes: as for B8
B17: in the test with mouse TEAD4(210-427) [13], the IC50 is greater than 100000 nM. The Kd in the test with GST-hTEAD1(209-426) [14] and with mouse TEAD4(210-427) [15] was greater than 100000 nM each time.

B18: peptide 16 (alanine scan of 4E), acetylated (peptide)
peptide: Ac-SVEAHFAKALGDTWLQIKAA
modifications: lactam 3-18
notes: as for B8
Molecule B18 showed an IC50 in the test with mouse TEAD4(210-427) [13] of 3000 ± 760 nM. For the same molecule, the dissociation constant (Kd) is 740 ± 460 nM in the test with GST-hTEAD1(209-426) [14] and 1600 ± 690 nM in the test with mouse TEAD4(210-427) [15].

B19: peptide 20 (alanine scan of 4E), acetylated (peptide)
peptide: Ac-SVEDHFAKAAGDTWLQIKAA
modifications: lactam 3-18
notes: as for B8
For the molecule B19, the IC50 with mouse TEAD4(210-427) [13] is greater than 100000 nM. For the same molecule, the dissociation constant (Kd) with GST-hTEAD1(209-426) [14] and with mouse TEAD4(210-427) [15] was greater than 100000 nM in each case.

B20: peptide 22 (alanine scan of 4E), acetylated (peptide)
peptide: Ac-SVEDHFAKALGDAWLQIKAA
modifications: lactam 3-18
notes: as for B8
In the test with GST-hTEAD1(209-426) [14], B20 gave an equilibrium dissociation constant (Kd) of 91000 ± 14000 nM.

B21: YAP(50-100) (peptide, UniProt P46937 50-100, looked up)
peptide: AGHQIVHVRGDSETDLEALFNAVMNPKTANVPQTVPMRLRKLPDSFFKPPE
notes: yes-associated protein YAP, residues 50-100
With B21, the dissociation constant (Kd) in the test with mouse TEAD4(210-427) [16] is 700 nM.

The values are drawn from paper PMC7591920 (Nature Communications, 2020).
